# T1: mCherry-LacR-MITF (human, UniProt O75030-9 1-419)
# T1 sequence: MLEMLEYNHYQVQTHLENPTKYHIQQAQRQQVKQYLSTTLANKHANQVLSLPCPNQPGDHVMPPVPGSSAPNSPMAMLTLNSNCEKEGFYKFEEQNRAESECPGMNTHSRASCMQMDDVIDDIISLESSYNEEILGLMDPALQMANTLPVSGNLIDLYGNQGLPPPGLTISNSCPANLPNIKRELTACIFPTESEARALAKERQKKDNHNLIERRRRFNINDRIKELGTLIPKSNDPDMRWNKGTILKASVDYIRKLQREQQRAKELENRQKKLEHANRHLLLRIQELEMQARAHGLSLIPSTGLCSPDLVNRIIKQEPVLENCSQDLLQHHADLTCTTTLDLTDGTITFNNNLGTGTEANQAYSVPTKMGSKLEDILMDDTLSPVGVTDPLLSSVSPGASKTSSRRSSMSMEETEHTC
# Target: T1, mCherry-LacR-MITF
# Assay: LacR/LacO nuclear tethering assay
binder,measurement,value
NBS1-GFP (natural protein) MWKLLPAAGPAGGEPYRLLTGVEYVVGRKNCAILIENDQSISRNHAVLTANFSVTNLSQTDEIPVLTLKDNSKYGTFVNEEKMQNGFSRTLKSGDGITFGVFGSKFRIEYEPLVACSSCLDVSGKTALNQAILQLGGFTVNNWTEECTHLVMVSVKVTIKTICALICGRPIVKPEYFTEFLKAVESKKQPPQIESFYPPLDEPSIGSKNVDLSGRQERKQIFKGKTFIFLNAKQHKKLSSAVVFGGGEARLITEENEEEHNFFLAPGTCVVDTGITNSQTLIPDCQKKWIQSIMDMLQRQGLRPIPEAEIGLAVIFMTTKNYCDPQGHPSTGLKTTTPGPSLSQGVSVDEKLMPSAPVNTTTYVADTESEQADTWDLSERPKEIKVSKMEQKFRMLSQDAPTVKESCKTSSNNNSMVSNTLAKMRIPNYQLSPTKLPSINKSKDRASQQQQTNSIRNYFQPSTKKRERDEENQEMSSCKSARIETSCSLLEQTQPATPSLWKNKEQHLSENEPVDTNSDNNLFTDTDLKSIVKNSASKSHAAEKLRSNKKREMDDVAIEDEVLEQLFKDTKPELEIDVKVQKQEEDVNVRKRPRMDIETNDTFSDEAVPESSKISQENEIGKKRELKEDSLWSAKEISNNDKLQDDSEMLPKKLLLTEFRSLVIKNSTSRNPSGINDDYGQLKNFKKFKKVTYPGAGKLPHIIGGSDLIAHHARKNTELEEWLRQEMEVQNQHAKEESLADDLFRYNPYLKRRR,median enrichment of GFP at the mCherry dot over the rest of the nucleus,7 fold
